Measured values published in paper PMC4938799, “LD Motif Recognition by Talin: Structure of the Talin-DLC1 Complex” (Structure(London, England:1993), 2016).

Test system: paxillin-DDK
Experiment: GST pull-down of transfected paxillin-DDK in 293 cells
Assay type: cell-based, human
Source text: To investigate whether the biological effects of GST-R8 might be partly mediated via paxillin, we first confirmed that endogenous paxillin is expressed in cell lines A549, H358, and 293T (Figure S6A). […] As a positive control, HEK293 cells were co-transfected with a paxillin-DDK construct (OriGene) and GST-R8 (wild-type, R1544E and 2E mutants), followed by a GST pull-down assay.
Figure S6, related to figure 5. Binding of GST-talin R8 to endogenous paxillin is undetectable in A549 and H358 cells.
(A) The expression of endogenous paxillin in cell lines. Cell extracts were assayed by immunoblotting with anti-paxillin antibody. […]
NMR Spectroscopy - Spectra were processed with TopSpin (Bruker) and analysed using CCPN Analysis (Vranken et al., 2005). […] The changes in chemical shift of 15N-talin R8 domain were calculated from 1H,15N-HSQC spectra as Δδ=√(ΔδH2+(ΔδN*0.15)2). […]
Dissociation constants were evaluated from the 1H,15N-HSQC chemical shift changes in the titration experiments conducted using 0.1 mM 15N-talin R8 domain. […]
Concentrations of the DLC1 and RIAM peptides were determined from UV absorbance at 280 nm.
Concentrations of the paxillin peptide that lacks UV-active aromatic residues was determined by NMR from the comparison of the integral intensities of the well-separated signals of the methyl groups of the paxillin and RIAM peptides following the Eretic2 procedure of TopSpin (Bruker). […]

B1: GST-R8: GST-tagged talin R8, amino acids 1,453–1,580 (protein)
chain: NSQAGQQGLVEPTQFARANQAIQMACQSLGEPGCTQAQVLSAATIVAKHTSALCNSCRLASARTANPTAKRQFVQSAKEVANSTANLVKTIKALDGDFTEENRAQCRAATAPLLEAVDNLSAFASNPE
modifications: left off: GST, end not stated, kept
binding of paxillin-DDK (293 cells co-transfected with paxillin-DDK and GST-R8, listed as GST-talin R8 wt): formed a complex
binding of paxillin-DDK (293 cells co-transfected with paxillin-DDK and GST-R8, listed as wild-type GST-R8): did bind paxillin-DDK, and did so more efficiently than 2E GST-R8 talin mutant
